Measured values from patent US20250223317A1, “KEAP1 INHIBITING PROTEIN-LIKE POLYMERS” (NORTHWESTERN UNIVERSITY, priority 2022, published 2025).

Tested on: Antioxidant Response Element (ARE) Luciferase HepG2 Reporter cells
Description: Cells were plated at a seeding density of 25k cells/well into 96 well plates in cell growth media and allowed to incubate for 24 hours. […] After 24 hours, 10 μL of MTS reagent was added to each well, and the cells incubated for four hours at 37° C. Absorbance was measured at 490 nm using a Perkin Elmer EnSpire plate reader every hour after MTS addition. Viability was assessed after background subtraction from cell free control wells and calculated as relative viability based on the average of control wells. Viability is reported as a percentage of control groups and prepared for presentation using Prism9.
The reporter and cell viability assays were performed over a concentration range of 0 μM to 10 μM for each of the polymers described.
Cells were plated at a seeding density of 25k cells/well into 96 well plates in cell growth media and allowed to incubate for 24 hours. […] Luminescence was assessed using the Biotek SynergyNeo2 plate reader at the High Throughput Analysis Core at Northwestern University. Background luminescence of cell free controls wells was subtracted from test wells. […] Absorbance was measured at 490 nm using a Perkin Elmer EnSpire plate reader every hour after MTS addition. Viability was assessed after background subtraction from cell free control wells and calculated as relative viability based on the average of control wells. […]

Q: Which “tolerability (MTS assay)” value does the source give for DLG Homopolymer (RQDIDLGVSRR) here?
A: well tolerated
